Experiments:
[1] = target: T1, HPV18 L1 virus-like particle (Human papillomavirus type 18, isolate …, UniProt P06794); assay: cell-based or functional assay
[2] = target: T2, HPV58 L1 virus-like particle (Human papillomavirus type 58, isolate …, UniProt P26535); assay: ELISA; indirect ELISA as a2 but L1-VLPs denatured (0.2 M sodium carbonate pH 10.6, 10 mM DTT, 30 min, boiled 5 min) before coating; mAb 0.3 μg/ml; conditions: both partners purified
T2 construct: major capsid protein L1 of human papillomavirus type 58, assembled into virus-like particles; Used native and denatured; also called HPV58 L1-VLP

[3] = target: T3, HPV16 L1 virus-like particle (Human papillomavirus type 16, isolate …, UniProt P03101); assay: as above; conditions: both partners purified
T3 construct: major capsid protein L1 of human papillomavirus type 16, assembled into virus-like particles; Used native and denatured; also called HPV16 L1-VLP

[4] = target: T4, HPV31 L1 virus-like particle (Human papillomavirus type 31, isolate …, UniProt P17388); assay: as above; conditions: both partners purified
T4 construct: major capsid protein L1 of human papillomavirus type 31, assembled into virus-like particles; Used native and denatured; also called HPV31 L1-VLP; HPV31VLP

[5] = target: T5, HPV33 L1 virus-like particle (Human papillomavirus type 33, isolate …, UniProt P06416); assay: as above; conditions: both partners purified
T5 construct: major capsid protein L1 of human papillomavirus type 33, assembled into virus-like particles; Used native and denatured; also called HPV33 L1-VLP

[6] = target: T6, HPV45 L1 virus-like particle (Human papillomavirus type 45, isolate …, UniProt P36741); assay: as above; conditions: both partners purified
T6 construct: major capsid protein L1 of human papillomavirus type 45, assembled into virus-like particles; Used native and denatured; also called HPV45 L1-VLP

[7] = target: T7, HPV11 L1 virus-like particle (Human papillomavirus type 11, isolate …, UniProt P04012); assay: ELISA; indirect ELISA; native L1-VLPs of nine HPV types coated at 200 ng/well overnight at 4 °C; mAb 0.3 μg/ml, 1 h, room temperature; HRP goat anti-mouse IgG; conditions: both partners purified
T7 construct: major capsid protein L1 of human papillomavirus type 11, assembled into virus-like particles; Used native and denatured; also called HPV11 L1-VLP

[8] = target: T1, HPV18 L1 virus-like particle; assay: SPR; BIACORE3000; L1-VLPs coupled to the chip (40 μg/ml, acetate pH 5.5, 4000 RU); antibodies at seven concentrations 0.3125 to 20 nM in PBS; binding 60 s, dissociation 500 s; conditions: both partners purified
[9] = target: T2, HPV58 L1 virus-like particle; assay: ELISA; indirect ELISA; native L1-VLPs of nine HPV types coated at 200 ng/well overnight at 4 °C; mAb 0.3 μg/ml, 1 h, room temperature; HRP goat anti-mouse IgG; conditions: both partners purified
[10] = target: T3, HPV16 L1 virus-like particle; assay: as above; conditions: both partners purified
[11] = target: T4, HPV31 L1 virus-like particle; assay: as above; conditions: both partners purified
[12] = target: T5, HPV33 L1 virus-like particle; assay: as above; conditions: both partners purified
[13] = target: T6, HPV45 L1 virus-like particle; assay: as above; conditions: both partners purified

T1 sequence (P06794 whole entry): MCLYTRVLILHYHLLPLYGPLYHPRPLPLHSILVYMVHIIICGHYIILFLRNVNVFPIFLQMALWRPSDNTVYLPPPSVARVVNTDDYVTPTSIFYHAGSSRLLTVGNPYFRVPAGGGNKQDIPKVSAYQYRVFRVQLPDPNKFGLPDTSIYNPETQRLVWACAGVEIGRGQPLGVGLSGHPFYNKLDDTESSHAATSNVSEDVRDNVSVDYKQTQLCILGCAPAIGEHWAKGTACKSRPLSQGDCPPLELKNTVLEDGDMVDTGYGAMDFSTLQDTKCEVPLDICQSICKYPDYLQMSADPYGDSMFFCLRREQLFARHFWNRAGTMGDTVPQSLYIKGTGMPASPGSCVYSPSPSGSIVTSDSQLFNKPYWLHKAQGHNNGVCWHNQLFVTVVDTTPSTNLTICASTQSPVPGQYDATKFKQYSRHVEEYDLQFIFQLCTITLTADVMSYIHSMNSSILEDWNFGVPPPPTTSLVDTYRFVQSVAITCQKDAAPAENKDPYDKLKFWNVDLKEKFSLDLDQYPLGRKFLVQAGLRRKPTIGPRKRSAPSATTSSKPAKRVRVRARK
T6 sequence (P36741 whole entry): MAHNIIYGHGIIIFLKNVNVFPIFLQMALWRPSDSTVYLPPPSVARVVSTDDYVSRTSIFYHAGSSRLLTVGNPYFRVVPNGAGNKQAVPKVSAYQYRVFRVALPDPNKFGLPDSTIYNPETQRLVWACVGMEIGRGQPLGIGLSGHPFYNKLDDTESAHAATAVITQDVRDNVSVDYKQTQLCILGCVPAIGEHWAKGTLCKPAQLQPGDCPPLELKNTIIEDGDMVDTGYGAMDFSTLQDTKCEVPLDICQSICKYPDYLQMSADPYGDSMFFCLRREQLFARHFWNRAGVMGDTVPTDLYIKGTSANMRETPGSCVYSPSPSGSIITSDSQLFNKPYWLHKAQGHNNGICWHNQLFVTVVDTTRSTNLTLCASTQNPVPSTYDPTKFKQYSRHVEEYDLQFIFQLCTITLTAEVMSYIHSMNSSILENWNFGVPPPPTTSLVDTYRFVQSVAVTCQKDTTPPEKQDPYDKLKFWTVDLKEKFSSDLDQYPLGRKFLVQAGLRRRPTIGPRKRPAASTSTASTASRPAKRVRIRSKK
T2 sequence (P26535 whole entry): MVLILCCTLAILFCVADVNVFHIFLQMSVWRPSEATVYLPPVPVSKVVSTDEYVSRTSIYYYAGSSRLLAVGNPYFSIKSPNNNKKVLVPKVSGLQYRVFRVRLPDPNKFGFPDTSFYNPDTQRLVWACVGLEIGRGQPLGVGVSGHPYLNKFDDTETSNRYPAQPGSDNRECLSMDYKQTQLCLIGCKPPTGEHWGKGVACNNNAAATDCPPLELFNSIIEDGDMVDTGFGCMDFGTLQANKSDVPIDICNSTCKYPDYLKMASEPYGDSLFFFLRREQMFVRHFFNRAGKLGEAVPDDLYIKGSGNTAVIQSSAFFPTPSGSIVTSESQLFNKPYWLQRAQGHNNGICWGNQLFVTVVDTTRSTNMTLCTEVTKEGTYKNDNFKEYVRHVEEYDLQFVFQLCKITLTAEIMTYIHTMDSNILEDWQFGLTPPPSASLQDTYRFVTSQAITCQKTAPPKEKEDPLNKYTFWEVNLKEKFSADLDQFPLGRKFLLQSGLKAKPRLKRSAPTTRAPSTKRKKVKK
T7 sequence (P04012 whole entry): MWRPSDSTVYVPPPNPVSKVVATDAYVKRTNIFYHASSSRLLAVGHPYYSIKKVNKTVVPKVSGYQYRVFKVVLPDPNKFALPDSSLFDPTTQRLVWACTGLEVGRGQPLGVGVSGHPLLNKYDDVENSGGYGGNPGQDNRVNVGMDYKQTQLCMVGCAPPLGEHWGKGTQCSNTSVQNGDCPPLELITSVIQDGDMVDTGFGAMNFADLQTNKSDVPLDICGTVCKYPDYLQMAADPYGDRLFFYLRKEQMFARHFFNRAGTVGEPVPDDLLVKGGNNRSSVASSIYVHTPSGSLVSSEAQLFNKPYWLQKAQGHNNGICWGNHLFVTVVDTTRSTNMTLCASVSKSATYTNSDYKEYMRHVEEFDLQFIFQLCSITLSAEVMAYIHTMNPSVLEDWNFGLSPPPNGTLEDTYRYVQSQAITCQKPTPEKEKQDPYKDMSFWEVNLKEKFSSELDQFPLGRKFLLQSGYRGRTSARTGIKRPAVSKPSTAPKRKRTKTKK
T3 sequence (P03101 whole entry): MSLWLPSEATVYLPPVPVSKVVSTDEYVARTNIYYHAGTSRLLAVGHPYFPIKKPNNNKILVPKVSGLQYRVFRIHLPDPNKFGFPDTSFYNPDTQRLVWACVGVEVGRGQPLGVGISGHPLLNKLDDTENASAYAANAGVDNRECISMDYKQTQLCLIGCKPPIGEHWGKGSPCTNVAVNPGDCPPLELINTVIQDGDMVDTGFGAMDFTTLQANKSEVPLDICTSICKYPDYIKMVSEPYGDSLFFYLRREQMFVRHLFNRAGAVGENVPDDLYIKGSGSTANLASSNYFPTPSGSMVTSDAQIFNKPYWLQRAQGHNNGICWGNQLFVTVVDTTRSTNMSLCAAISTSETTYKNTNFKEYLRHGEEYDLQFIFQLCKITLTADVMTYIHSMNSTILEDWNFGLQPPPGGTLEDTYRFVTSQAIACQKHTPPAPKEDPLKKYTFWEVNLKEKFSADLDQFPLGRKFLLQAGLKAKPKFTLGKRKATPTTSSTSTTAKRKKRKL
T5 sequence (P06416 whole entry): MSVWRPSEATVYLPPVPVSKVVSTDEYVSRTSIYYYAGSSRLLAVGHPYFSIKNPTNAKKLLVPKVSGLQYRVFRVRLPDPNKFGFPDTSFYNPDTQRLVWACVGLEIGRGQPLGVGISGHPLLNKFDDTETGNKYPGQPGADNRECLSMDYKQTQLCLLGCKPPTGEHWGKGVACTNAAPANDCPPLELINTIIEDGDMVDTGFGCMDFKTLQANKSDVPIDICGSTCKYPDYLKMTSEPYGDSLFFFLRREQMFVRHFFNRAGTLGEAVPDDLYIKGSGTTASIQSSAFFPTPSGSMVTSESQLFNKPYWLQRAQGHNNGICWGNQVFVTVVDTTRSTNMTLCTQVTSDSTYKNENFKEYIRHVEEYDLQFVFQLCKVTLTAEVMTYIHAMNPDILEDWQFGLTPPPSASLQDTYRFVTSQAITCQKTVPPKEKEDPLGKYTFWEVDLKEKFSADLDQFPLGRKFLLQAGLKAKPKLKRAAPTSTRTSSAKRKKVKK
T4 sequence (P17388 whole entry): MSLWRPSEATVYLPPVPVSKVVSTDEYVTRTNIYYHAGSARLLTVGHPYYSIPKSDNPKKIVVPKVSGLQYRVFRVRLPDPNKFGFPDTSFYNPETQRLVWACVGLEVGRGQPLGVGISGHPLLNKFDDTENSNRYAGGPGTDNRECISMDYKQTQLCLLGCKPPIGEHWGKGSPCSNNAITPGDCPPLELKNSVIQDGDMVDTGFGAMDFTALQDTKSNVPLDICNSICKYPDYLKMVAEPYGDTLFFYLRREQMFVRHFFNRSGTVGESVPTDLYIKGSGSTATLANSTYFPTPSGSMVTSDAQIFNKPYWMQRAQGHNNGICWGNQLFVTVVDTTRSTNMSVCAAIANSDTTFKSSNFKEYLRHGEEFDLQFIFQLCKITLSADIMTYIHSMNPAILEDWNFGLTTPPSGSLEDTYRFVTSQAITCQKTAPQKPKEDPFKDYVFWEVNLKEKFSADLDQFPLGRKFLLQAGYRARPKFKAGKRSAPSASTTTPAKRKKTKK

| Binder | IC50 of neutralisation of HPV18 pseudovirus (PsV18) infection of 293FT cells, fluorescence by flow cytometry [1] | binding result [2] | binding result [3] | binding result [4] | binding result [5] | binding result [6] | binding result [7] | Kd [8] | koff [8] | kon [8] | binding result [9] | binding result [10] | binding result [11] | binding result [12] | binding result [13] |
| --- | --- | --- | --- | --- | --- | --- | --- | --- | --- | --- | --- | --- | --- | --- | --- |
| monoclonal antibody 1B1 against HPV18 L1-VLP (antibody, V domains shown, IgG1; unconjugated in indirect ELISA and SPR; also called mAb 1B1; 1B1-HRP; source: mouse hybridoma (BALB/c spleen cells fused with SP2/0), ascites, purified on Protein G; copies: 2 + 2) VH: VQLQQSGGDLVKPGGSLKLSCAASGFTFSSYGMSWVRQTPDKRLEWVATISGGGSYTYYPDSVKGRFTISRDNAKNTLYLQMSSLKSEDTAMYYCSRHDSYGNYAAWFAYWGQGTTVTVS VL: DIQLTQSPALMAASPGEKVTITCSVSSSISSSNLHWYQQKSETSPKPWIYGTSNLASGVPVRFSGSGSGTSYSLTISSMEAEDAATYYCQQWSSYPFTFGSGTKLEI | 0.039 µg/mL | no binding (tested: 0.3 μg/ml mAb) | no binding (tested: 0.3 μg/ml mAb) | no binding (tested: 0.3 μg/ml mAb) | no binding (tested: 0.3 μg/ml mAb) | no binding (tested: 0.3 μg/ml mAb) | no binding (tested: 0.3 μg/ml mAb) | 2.06 nM | 0.00192 s⁻¹ | 931000 M⁻¹ s⁻¹ | – | – | – | – | – |
| monoclonal antibody 4C2 against HPV18 L1-VLP (antibody, V domains shown, IgG1; Coating antibody of the sandwich ELISA kit; also called mAb 4C2; source: mouse hybridoma (BALB/c spleen cells fused with SP2/0), ascites, purified on Protein G; copies: 2 + 2) VH: VKLQESGAELMKPGASVKISCKATGYTFRSYWIEWVKQRPGHGLEWIGEILPGSGITNYNEKFKGKATFTADTSSNTAYMQLSSLTSEDSAVYYCARHWDGNAMDYWGQGTTVTVSS VL: DIQLTQSPLSLPVSLGDQASISCRSSQSIVHSNGNTYLEWYLQKPGQSPKLLIYKVSNRFSGVPDRFSGSGSGTDFTLKISRVEAEDLGVYYCFQGSHVPLTFGAGTKLEI | 10 µg/mL | – | – | – | – | – | no binding (tested: 0.3 μg/ml mAb) | 7.45 nM | 0.0178 s⁻¹ | 2.38e+06 M⁻¹ s⁻¹ | no binding (tested: 0.3 μg/ml mAb) | no binding (tested: 0.3 μg/ml mAb) | no binding (tested: 0.3 μg/ml mAb) | no binding (tested: 0.3 μg/ml mAb) | no binding (tested: 0.3 μg/ml mAb) |

— publication PMC6097307, “Development and characterization of an HPV18 detection kit using two novel HPV18 type-specific monoclonal antibodies” (Diagnostic Pathology, 2018)
